The results in this text go back to patent publication US20240293478A1.

For experiment [1], the target named is IL-12 receptor on HEK-Blue IL-12 cells (UniProt P42701). Put plainly: cell-based or functional assay.
The target in experiment [2] is mouse TGF-β1 (R&D systems) (mouse) (UniProt P04202). Put plainly: direct ELISA with mouse TGF-β1; supernatant of transfected HEK293T cells. In general terms: An ELISA detects its analyte on a solid surface through an enzyme-linked reagent.
For experiment [3] the target is unchanged. Put plainly: direct ELISA with mouse TGF-β1; concentrated supernatant of transfected HEK293T cells.
Experiment [4] concerns the target recombinant murine CTLA-4-human IgG1 Fc chimera (R&D Systems) (mouse; human) (UniProt P09793). Put plainly: competitive ELISA; competitor mouse CD80 coated at 100 ng/ml, 10 ng/ml murine CTLA-4-human IgG1 Fc mixed with HEK293T supernatant, anti-human IgG1-HRP.
Experiment [5] shares this target. In words: competitive ELISA; competitor mouse CD86 coated at 100 ng/ml, 10 ng/ml murine CTLA-4-human IgG1 Fc mixed with HEK293T supernatant, anti-human IgG1-HRP.

Chain of IL-12 receptor on HEK-Blue IL-12 cells (Q99665 24-862, chain 2 of 2, other chains not shown): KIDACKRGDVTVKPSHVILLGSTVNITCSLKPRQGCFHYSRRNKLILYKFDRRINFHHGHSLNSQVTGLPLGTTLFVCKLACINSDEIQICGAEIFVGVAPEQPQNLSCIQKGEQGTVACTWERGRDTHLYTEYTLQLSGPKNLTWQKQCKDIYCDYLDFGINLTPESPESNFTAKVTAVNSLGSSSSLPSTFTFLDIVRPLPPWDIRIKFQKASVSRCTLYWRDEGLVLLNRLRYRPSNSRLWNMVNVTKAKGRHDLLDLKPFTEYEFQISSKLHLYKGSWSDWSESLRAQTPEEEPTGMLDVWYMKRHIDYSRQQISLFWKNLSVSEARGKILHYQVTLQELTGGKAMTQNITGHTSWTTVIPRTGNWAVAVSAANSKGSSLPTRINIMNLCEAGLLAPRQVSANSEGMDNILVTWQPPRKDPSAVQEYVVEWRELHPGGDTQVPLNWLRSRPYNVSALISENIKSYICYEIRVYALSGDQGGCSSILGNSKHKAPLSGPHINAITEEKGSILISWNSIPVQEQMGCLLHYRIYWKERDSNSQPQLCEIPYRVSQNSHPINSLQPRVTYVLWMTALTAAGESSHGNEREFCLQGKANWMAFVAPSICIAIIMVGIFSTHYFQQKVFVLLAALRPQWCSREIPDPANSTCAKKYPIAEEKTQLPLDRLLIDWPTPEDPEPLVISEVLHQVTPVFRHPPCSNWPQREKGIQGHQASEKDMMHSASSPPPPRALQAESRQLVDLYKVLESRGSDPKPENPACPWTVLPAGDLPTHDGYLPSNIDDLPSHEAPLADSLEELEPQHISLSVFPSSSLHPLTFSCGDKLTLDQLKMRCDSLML
Chain of recombinant murine CTLA-4-human IgG1 Fc chimera (R&D Systems) (mouse; human) (P09793 36-162 limits assumed, change not shown): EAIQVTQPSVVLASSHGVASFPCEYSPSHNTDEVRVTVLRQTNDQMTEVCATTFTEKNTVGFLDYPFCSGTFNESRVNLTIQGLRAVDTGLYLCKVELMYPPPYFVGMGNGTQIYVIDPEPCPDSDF
Chain of mouse TGF-β1 (R&D systems) (mouse) (P04202 279-390 limits assumed): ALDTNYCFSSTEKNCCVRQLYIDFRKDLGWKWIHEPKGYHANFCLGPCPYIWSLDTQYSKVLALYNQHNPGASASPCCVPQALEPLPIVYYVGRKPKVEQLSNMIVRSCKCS

For Human membrane bound IL-12p70 (ligand), the STAT4-SEAP (Absorbance/% GFP); transfected HEK cells co-cultured with HEK-Blue IL-12 cells (Absorbance/% GFP) in experiment [1] is 0.237. Still for that read-out and setting: in the case of Mouse membrane bound IL-12p70 (ligand) it was 0.117. Regarding “Soluble mouse TGFβ receptor II Fc (from UniProt Q62312 24-166) (Fc fusion)”, the Absorbance at 450 nm (absorbance (450 nm)) in experiment [2] was found to be 1.51; in experiment [3], 1.52.

In experiment [1], huIL-12p70 (ligand) gave an STAT4-SEAP (Absorbance/% GFP); transfected HEK cells co-cultured with HEK-Blue IL-12 cells (Absorbance/% GFP) of 0.11. With ipilimumab scFv antibody fragment, the % CD80 Blockade Activity in experiment [4] was 7%. Besides, the % CD86 Blockade Activity in experiment [5] turned out to be 32.5%. Turning to muIL-12p70 (ligand), in experiment [1], the STAT4-SEAP (Absorbance/% GFP); transfected HEK cells co-cultured with HEK-Blue IL-12 cells (Absorbance/% GFP) was 0.11.
